# Legend:
# [1] = target: CD4-induced (CD4i) monoclonal antibody 48d; test: SPR (BIACORE 2000), MAb 48d amine-coupled to CM5 chip, gp120 as analyte, 25 C
# [2] = target: CD4-induced (CD4i) monoclonal antibody 17b; test: SPR (BIACORE 2000), MAb 17b amine-coupled to CM5 chip, gp120 as analyte, 25 C
# [3] = target: 8x-V3BaL Env (whole Env, on virions or effector cells) (HIV-1); test: cell-based or functional assay
# [4] = target: IIIB-V3BaL Env on luciferase reporter virions (HIV-1); test: cell-based or functional assay
substance,measurement,setting,value
8x gp120 (soluble gp120 of the HIV-1/IIIBx 8x Env clone) (from UniProt P04578 33-511),Kd,[1],6 nM
same,koff,[1],0.001 s⁻¹
same,kon,[1],200000 M⁻¹ s⁻¹
same,Kd,[2],15 nM
same,koff,[2],0.002 s⁻¹
same,kon,[2],100000 M⁻¹ s⁻¹
CD4-induced (CD4i) monoclonal antibody 48d,concentration for 50% neutralisation of luciferase reporter virus on GHOST-CCR5 cells,[3],3 ng/mL
same,concentration for 90% neutralisation of luciferase reporter virus on GHOST-CCR5 cells,[3],> 200 ng/mL
same,percent neutralisation at 200 ng/ml,[3],88%
same,concentration for 50% neutralisation of luciferase reporter virus on GHOST-CCR5 cells,[4],> 5000 ng/mL
same,concentration for 90% neutralisation of luciferase reporter virus on GHOST-CCR5 cells,[4],> 5000 ng/mL
CD4-induced (CD4i) monoclonal antibody 17b,concentration for 50% neutralisation of luciferase reporter virus on GHOST-CCR5 cells,[3],2 ng/mL
same,concentration for 90% neutralisation of luciferase reporter virus on GHOST-CCR5 cells,[3],15 ng/mL
same,concentration for 50% neutralisation of luciferase reporter virus on GHOST-CCR5 cells,[4],14 ng/mL
same,concentration for 90% neutralisation of luciferase reporter virus on GHOST-CCR5 cells,[4],90 ng/mL
monoclonal antibody 50.1,concentration for 50% neutralisation of reporter virus,[3],45 ng/mL
same,concentration for 90% neutralisation of reporter virus,[3],610 ng/mL
same,concentration for 50% neutralisation of reporter virus,[4],95 ng/mL
same,concentration for 90% neutralisation of reporter virus,[4],375 ng/mL

# Reference: US20030091594A1
